Experimental data taken from article PMC10226596, “The ethylene-responsive transcription factor PpERF9 represses PpRAP2.4 and PpMYB114 via histone deacetylation to inhibit anthocyanin biosynthesis in pear”.

B1: ProMYB114-probe (dsDNA)
DNA 1: GCTTGCCGTCTTTGTCGTCTCCGGCGCCGCCATCTACATCTGCTTCCAGGTTCAAC
DNA 2: GTTGAACCTGGAAGCAGATGTAGATGGCGGCGCCGGAGACGACAAAGACGGCAAGC
B2: ProACS1-probe (dsDNA)
DNA 1: GAAAAATAGAGGAGAAAAATGGCCGACAAAATTAGTTGTGGCTACTAGAGTCAAGAAG
DNA 2: CTTCTTGACTCTAGTAGCCACAACTAATTTTGTCGGCCATTTTTCTCCTCTATTTTTC

Legend:
[1] = molecular target: T1, PpRAP2.4 (Pyrus (pear, 'Hongzaosu'?), UniProt A0A5N5HQM7 1-356); assay: EMSA; 3 ug protein; cold competitor 10-, 50-, 200-fold; LightShift Chemiluminescent EMSA Kit (Thermo Scientific); buffer, salt, pH and temperature not stated; conditions: protein: recombinant; tags: His (pET32a); label: 3' biotin (hot probe); blunt
T1 sequence (A0A5N5HQM7 entry or part of it): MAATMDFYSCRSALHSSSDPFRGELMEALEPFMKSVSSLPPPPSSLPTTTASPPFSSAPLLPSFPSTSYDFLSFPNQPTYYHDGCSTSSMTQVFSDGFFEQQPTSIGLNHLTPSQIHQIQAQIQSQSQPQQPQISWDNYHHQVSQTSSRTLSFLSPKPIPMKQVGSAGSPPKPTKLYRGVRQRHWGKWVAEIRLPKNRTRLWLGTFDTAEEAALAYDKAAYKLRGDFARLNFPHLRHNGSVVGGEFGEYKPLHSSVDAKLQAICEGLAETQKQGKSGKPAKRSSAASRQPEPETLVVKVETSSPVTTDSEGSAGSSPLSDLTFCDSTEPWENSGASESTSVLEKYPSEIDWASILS

[2] = molecular target: T1, PpRAP2.4; assay: EMSA; cold competitor 50-, 100-, 200-fold; LightShift Chemiluminescent EMSA Kit (Thermo Scientific); buffer, salt, pH and temperature not stated; conditions: protein: recombinant; tags: His (pET32a); label: 3' biotin (hot probe); blunt

Binder | binding result [1] | binding result [2]
B1 | binds | 
B2 |  | binds
